Data published in US20130209439A1, “INHIBITORS OF PDE4 BINDING TO HSP20” (THE UNIVERSITY COURT OF THE UNIVERSITY OF GLASGOW, priority 2010, published 2013).
Where no end group is shown, it is not given here.

Key:
[1] = target: T1, PDE4D5-HSP20 complex (Homo sapiens, UniProt O14558); assay: Immunoprecipitation of HSP20 probed for PDE4D5, HEK293 cell lysate; type: binding; conditions: HEK293 cells transfected with HSP20 and PDE4D5, increasing peptide concentrations
T1 construct: containing the open reading frame of Hsp20 in pENTR221 vector, was used to generate pcDNA6.2-Hsp20; expressed in transfected cells; host or cells: HEK293 cells
T1 sequence (O14558 1-160): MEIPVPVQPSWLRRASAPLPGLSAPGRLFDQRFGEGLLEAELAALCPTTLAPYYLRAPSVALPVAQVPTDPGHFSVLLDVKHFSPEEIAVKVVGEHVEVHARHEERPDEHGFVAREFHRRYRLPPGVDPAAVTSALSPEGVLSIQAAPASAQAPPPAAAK
Text: FIG. 6. Peptide disruption of the PDE4D-HSP20 complex promotes PKA phosphorylation on Ser16. A, Upper panel. HEK293 cells were transfected with HSP20 and PDE4D5. Immunoprecipitation of HSP20 done in the presence increasing concentrations of Peptide 906 (SEQ ID NO: 36) and Peptide control (SEQ ID NO: 37) were probed for PDE4D5. Lower panel. Densitometric analysis of amount of PDE4D5 in HSP20 immunoprecipitates normalised to expression level. Data representative of n=3. B, Purified preparations of HSP20-His and PDE4D5-GST were subject to an ELISA assay containing increasing amounts of ‘Peptide 906’ and ‘peptide control’. C, Upper panel, HSP20 was transfected into HEK293 cells and treated with ‘Peptide 906’ for indicated times. Cellular lysates were blotted for HSP20 and phospho-HSP20. Middle panel, HSP20 was transfected into HEK293 cells and treated with ‘Peptide 906’ or ‘peptide control’ for indicated times. Cellular lysates were blotted for HSP20 and phospho-HSP20. Lower panel, Densitometric analysis of phosphorylation of HSP20 normalised to expression level (n=3).
HEK293B2 cells are a stable cell line overexpressing the GFP-tagged β2AR were cultured as previously described^48. […] Protein concentration of lysates were determined using the Bradford assay and all samples were equalised for protein concentration. […]

[2] = test system: neonatal cardiac myocytes; assay: Cardiac myocyte size by xCELLigence impedance (normalised cell index); type: cell-based, rat; conditions: 24 hour isoprenaline 10 μM, 30 min pre-treatment with 10 μM peptide
Experimental: FIG. 7. Peptide disruption of the PDE4D-HSP20 complex attenuates the hypertrophic response triggered by constant […]-agonist treatment. A, Upper panel. The area covered by isolated cardiac myocytes was used as a measure of cell size. Lower panel, Graphical depiction of the mean areas (N=100) of cells following 24 hours of indicated treatments. B, impedance measurements were used to calculate continuous normalised cell index using exCELLigence technology Normalised mean (n=4) cell index after 24 hours of indicated treatments.
The E-Plate 96 (Roche) was used for these experiments^45. This comprises a 96-well plate with integral sensor electrode arrays to measure cell impedance. […] E-plate 96 is a 96-well microtiter plate with incorporated gold cell sensor arrays in the bottom, which allows impedance inside each well to be monitored and assayed in real time. […] The impedance measured between electrodes in an individual well depends on electrode geometry, ion concentration in the well and whether or not cells are attached to the electrodes^45. In the absence of cells, electrode impedance is mainly determined by the ion environment both at the electrode/solution interface and in the bulk solution. […] Small changes in impedance can also be recorded when cells temporally change shape or size in response to agonists^46,57. […]

Peptide 906: stearoylated, cell-permeable disrupter peptide of PDE4D5 residues E468-K492 (SEQ ID NO: 36) (ENHHLAVGFKLLQEENSDIFQNLTK; also: stearoylated, site not given here)
association between PDE4D5 and HSP20 in immunoprecipitation from cellular lysate [1]: attenuated the association between PDE4D5 and HSP20
cell size (normalised cell index, impedance) of cardiac myocytes [2]: could be rescued
